From publication PMC8761706
“And” between values parts separate entries of the source, which are not always exact repeats. Equal entries are not always repeated.

Assays:
[1] = molecular target: fibrinogen fragment D (human); assay: fluorescence polarisation; competitive fluorescence anisotropy; unlabeled construct titrated into mixtures of fixed [5F]PR–(R1 → R7) with two frag D concentrations; cubic equation, fit together with the direct titrations
[2] = molecular target: fibrinogen fragment D (human); assay: fluorescence polarisation; fluorescence anisotropy; [5F]PR–(R1 → R7) titrated with frag D; 'the same buffer'; quadratic fit, n not fixed; independent, noncooperative sites assumed
[3] = molecular target: fibrinogen fragment D (human); assay: native gel or EMSA; incubated 30 min at 25 °C in 50 mM Hepes, 110 mM NaCl, 5 mM CaCl2, 1 mg/ml PEG-8000, 10 μM FFR-CK and FPR-CK with molar excess of frag D; 6% Tris–glycine gel without SDS, 4 °C; GelCode Blue and fluorescence
[4] = molecular target: fibrinogen fragment D (human); assay: other fluorescence titration; fluorescein-labeled construct at fixed concentration titrated with frag D; fluorescence intensity; 25 °C; 50 mM Hepes, 110 mM NaCl, 5 mM CaCl2, 1 mg/ml PEG-8000, pH 7.4, 10 μM FPR-CK; quadratic fit; n fixed to 1 for the Ala constructs and MP
[5] = molecular target: fibrinogen fragment D (human); assay: other fluorescence titration; fluorescence intensity; 20 mM sodium phosphate, 150 mM NaCl, 1 mg/ml PEG-8000, 10 μM FPR-CK, pH 7.0; n fixed to 1
[6] = molecular target: fibrinogen fragment D (human); assay: other fluorescence titration; fluorescence intensity; 20 mM sodium phosphate, 150 mM NaCl, 1 mg/ml PEG-8000, 10 μM FPR-CK, pH 7.4; n fixed to 1
[7] = molecular target: staphylocoagulase SC(1–660), full-length (Staphylococcus aureus Newman D2 Tager 104); assay: native gel or EMSA; incubated 30 min at 25 °C in 50 mM Hepes, 110 mM NaCl, 5 mM CaCl2, 1 mg/ml PEG-8000, 10 μM FFR-CK and FPR-CK with molar excess of frag D; 6% Tris–glycine gel without SDS, 4 °C; GelCode Blue and fluorescence
[8] = molecular target: fibrinogen fragment D fragment D (Homo sapiens) (UniProt P02671); conditions: cited from earlier work
Sequence of fibrinogen fragment D fragment D (Homo sapiens) (P02671 20-866, chain 1 of 3): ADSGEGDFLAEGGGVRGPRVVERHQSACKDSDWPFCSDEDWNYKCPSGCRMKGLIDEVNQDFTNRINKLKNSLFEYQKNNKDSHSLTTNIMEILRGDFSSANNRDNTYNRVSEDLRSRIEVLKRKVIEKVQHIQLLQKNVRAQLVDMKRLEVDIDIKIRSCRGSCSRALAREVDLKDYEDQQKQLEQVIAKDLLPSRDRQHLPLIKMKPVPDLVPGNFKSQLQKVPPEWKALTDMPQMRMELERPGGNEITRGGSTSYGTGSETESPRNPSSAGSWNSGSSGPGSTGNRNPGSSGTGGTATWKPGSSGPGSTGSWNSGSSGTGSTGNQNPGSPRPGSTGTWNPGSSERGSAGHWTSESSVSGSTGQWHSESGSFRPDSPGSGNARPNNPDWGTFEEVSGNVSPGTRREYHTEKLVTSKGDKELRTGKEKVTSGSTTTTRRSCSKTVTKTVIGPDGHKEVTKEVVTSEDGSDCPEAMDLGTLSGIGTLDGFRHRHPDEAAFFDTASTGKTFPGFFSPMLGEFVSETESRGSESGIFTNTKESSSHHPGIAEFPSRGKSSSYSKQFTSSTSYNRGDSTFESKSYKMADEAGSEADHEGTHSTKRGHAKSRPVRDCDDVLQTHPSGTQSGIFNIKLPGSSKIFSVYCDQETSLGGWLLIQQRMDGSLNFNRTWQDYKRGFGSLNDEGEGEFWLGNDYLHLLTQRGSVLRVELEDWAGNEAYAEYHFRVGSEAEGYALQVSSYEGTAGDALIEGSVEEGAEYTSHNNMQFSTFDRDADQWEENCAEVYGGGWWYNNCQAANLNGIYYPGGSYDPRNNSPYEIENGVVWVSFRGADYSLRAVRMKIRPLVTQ
Sequence of fibrinogen fragment D fragment D (Homo sapiens) (P02675 31-491, chain 2 of 3, further chain): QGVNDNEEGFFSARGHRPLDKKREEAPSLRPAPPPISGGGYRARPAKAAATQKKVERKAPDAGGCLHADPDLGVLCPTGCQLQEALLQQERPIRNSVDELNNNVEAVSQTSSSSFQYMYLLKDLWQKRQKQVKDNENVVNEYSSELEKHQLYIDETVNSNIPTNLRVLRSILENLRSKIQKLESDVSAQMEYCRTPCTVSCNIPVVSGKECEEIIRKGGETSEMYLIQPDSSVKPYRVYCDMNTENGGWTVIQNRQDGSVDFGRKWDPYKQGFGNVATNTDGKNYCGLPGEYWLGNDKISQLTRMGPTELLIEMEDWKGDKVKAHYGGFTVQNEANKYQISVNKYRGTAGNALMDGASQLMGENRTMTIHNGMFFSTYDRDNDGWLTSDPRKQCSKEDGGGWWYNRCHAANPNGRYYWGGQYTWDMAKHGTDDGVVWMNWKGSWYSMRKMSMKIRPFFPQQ
Sequence of fibrinogen fragment D fragment D (Homo sapiens) (P02679 27-453, chain 3 of 3, further chain): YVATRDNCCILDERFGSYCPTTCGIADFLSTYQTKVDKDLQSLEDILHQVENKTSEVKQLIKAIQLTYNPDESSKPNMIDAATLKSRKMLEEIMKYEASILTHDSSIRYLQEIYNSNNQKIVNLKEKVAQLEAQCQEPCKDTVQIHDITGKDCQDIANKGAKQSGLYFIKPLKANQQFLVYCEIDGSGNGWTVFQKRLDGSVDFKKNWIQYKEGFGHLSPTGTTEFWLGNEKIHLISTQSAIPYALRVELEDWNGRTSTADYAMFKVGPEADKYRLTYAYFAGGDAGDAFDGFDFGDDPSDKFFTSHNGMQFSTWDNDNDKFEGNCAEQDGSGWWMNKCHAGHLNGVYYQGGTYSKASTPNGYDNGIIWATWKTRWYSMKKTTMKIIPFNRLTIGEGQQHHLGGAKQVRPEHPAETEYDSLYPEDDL

Q: For “PR–R1R2R3 (unlabeled competitor) (domain or fragment)”, which stoichiometry N (mol frag D/mol repeat) [1] is on record?
A: Its stoichiometry N (mol frag D/mol repeat) is 3.3 and 3.5 and 2.5.

Q: Which Kd [1] does the source give for “PR–R1R6R7 (unlabeled competitor) (domain or fragment)” here?
A: The Kd was 0.008 µM.

Q: What about the stoichiometry N (mol frag D/mol repeat) [1] of the same substance?
A: Its stoichiometry N (mol frag D/mol repeat) is 3.

Q: Which Kd [1] does the source give for “PR–R3R4R7 (unlabeled competitor) (domain or fragment)” here?
A: The Kd was 0.042 µM.

Q: What about the stoichiometry N (mol frag D/mol repeat) [1] of the same substance?
A: The stoichiometry N (mol frag D/mol repeat) was 2.8.

Q: Which results are given for “PR–R3R6R7 (unlabeled competitor) (domain or fragment)”?
A: Kd [1]: 0.042 µM; stoichiometry N (mol frag D/mol repeat) [1]: 3

Q: What does the source list for “[5F]PR–(R1 → R7), full-length C-terminal repeat construct (domain or fragment)”?
A: stoichiometry N (mol frag D/mol repeat) [2]: 5.2 and 4.8 and 5.1; stoichiometry N (frag D per construct) [3]: 7

Q: For [5F]PR–R1 (domain or fragment), which stoichiometry N (mol frag D/mol repeat) [4] is on record?
A: Its stoichiometry N (mol frag D/mol repeat) is 1.

Q: With [5F]PR–R1R2R3 (domain or fragment) as the substance, how does the stoichiometry N (frag D per construct) [3] read?
A: Its stoichiometry N (frag D per construct) is 3.

Q: Which stoichiometry N (frag D per construct) [3] does the source give for [5F]PR–R1R6R7 (domain or fragment) here?
A: Its stoichiometry N (frag D per construct) is 3.

Q: For [5F]PR–R2 (domain or fragment), which Kd [4] is on record?
A: Its Kd is 0.13 µM.

Q: What about the stoichiometry N (mol frag D/mol repeat) [4] of the same substance?
A: The stoichiometry N (mol frag D/mol repeat) was 0.9.

Q: Which results are given for [5F]PR–R3 (domain or fragment)?
A: Kd [4]: 0.099 µM; stoichiometry N (mol frag D/mol repeat) [4]: 1.1

Q: With [5F]PR–R6 (domain or fragment) as the substance, how does the Kd [4] read?
A: Its Kd is 0.115 µM.

Q: What about the stoichiometry N (mol frag D/mol repeat) [4] of the same substance?
A: The stoichiometry N (mol frag D/mol repeat) was 0.8.

Q: For [5F]PR–R7 (domain or fragment), which Kd [5] is on record?
A: The Kd was 3 µM.

Q: And the Kd [6]?
A: The Kd was 0.027 µM.

Q: And the Kd [4]?
A: The Kd was 0.112 µM.

Q: And the stoichiometry N (mol frag D/mol repeat) [4]?
A: Its stoichiometry N (mol frag D/mol repeat) is 0.8.

Q: With [5F]PR–R7-SETNA (domain or fragment) as the substance, how does the Kd [4] read?
A: Its Kd is 0.12 µM.

Q: Which stoichiometry N [7] does the source give for “[5F]ProT, prothrombin labeled at the active site with 5-fluorescein (natural protein)” here?
A: Its stoichiometry N is 1 mol/mol.

Q: For “staphylocoagulase PR-R1 (from UniProt P07767)”, which Kd [8] is on record?
A: The Kd was 0.036 µM.

Q: For “staphylocoagulase SC(1–660), full-length (natural protein)”, which stoichiometry N (frag D per SC(1–660)) [3] is on record?
A: Its stoichiometry N (frag D per SC(1–660)) is 5 and 6.
